These results are taken from publication PMC11574045, “A cofactor-induced repressive type of transcription factor condensation can be induced by synthetic peptides to suppress tumorigenesis” (The EMBO Journal, 2024).

The experiment concerns HEK293FT cells transfected with TF library. Nature of the experiment: Screening of TF condensates based on fluorescent puncta. The format is cell-based. The settings on record: Figure 1B numerical data; TF library screen, one value per transcriptional factor. The procedure, abridged:
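HEK293FT cells were reverse-transfected with Flag- or GAL4-tagged TF plasmids (1.6 μg/ml, PEI). After 60 h, cells were cultured 12 h with or without glucose, then fixed and immunostained with anti-Flag or anti-GAL4 and Alexa 488 secondaries. Fluorescent puncta were imaged over fifty random fields per well by high-content imaging.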

B1: BACH1 (protein, UniProt O14867 1-736, looked up)
Transcription regulator …: MSLSENSVFAYESSVHSTNVLLSLNDQRKKDVLCDVTIFVEGQRFRAHRSVLAACSSYFHSRIVGQADGELNITLPEEVTVKGFEPLIQFAYTAKLILSKENVDEVCKCVEFLSVHNIEESCFQFLKFKFLDSTADQQECPRKKCFSSHCQKTDLKLSLLDQRDLETDEVEEFLENKNVQTPQCKLRRYQGNAKASPPLQDSASQTYESMCLEKDAALALPSLCPKYRKFQKAFGTDRVRTGESSVKDIHASVQPNERSENECLGGVPECRDLQVMLKCDESKLAMEPEETKKDPASQCPTEKSEVTPFPHNSSIDPHGLYSLSLLHTYDQYGDLNFAGMQNTTVLTEKPLSGTDVQEKTFGESQDLPLKSDLGTREDSSVASSDRSSVEREVAEHLAKGFWSDICSTDTPCQMQLSPAVAKDGSEQISQKRSECPWLGIRISESPEPGQRTFTTLSSVNCPFISTLSTEGCSSNLEIGNDDYVSEPQQEPCPYACVISLGDDSETDTEGDSESCSAREQECEVKLPFNAQRIISLSRNDFQSLLKMHKLTPEQLDCIHDIRRRSKNRIAAQRCRKRKLDCIQNLESEIEKLQSEKESLLKERDHILSTLGETKQNLTGLCQKVCKEAALSQEQIQILAKYSAADCPLSFLISEKDKSTPDGELALPSIFSLSDRPPAVLPPCARGNSEPGYARGQESQQMSTATSEQAGPAEQCRQSGGISDFCQQMTDKCTTDE
For the molecule B1, the “Z score of condensed fraction” value is on record as -0.5247.

B2: POLR3C (protein, UniProt Q9BUI4 1-534, looked up)
DNA-directed RNA polymerase …: MTQAEIKLCSLLLQEHFGEIVEKIGVHLIRTGSQPLRVIAHDTGTSLDQVKKALCVLVQHNLVSYQVHKRGVVEYEAQCSRVLRMLRYPRYIYTTKTLYSDTGELIVEELLLNGKLTMSAVVKKVADRLTETMEDGKTMDYAEVSNTFVRLADTHFVQRCPSVPTTENSDPGPPPPAPTLVINEKDMYLVPKLSLIGKGKRRRSSDEDAAGEPKAKRPKYTTDNKEPIPDDGIYWQANLDRFHQHFRDQAIVSAVANRMDQTSSEIVRTMLRMSEITTSSSAPFTQPLSSNEIFRSLPVGYNISKQVLDQYLTLLADDPLEFVGKSGDSGGGMYVINLHKALASLATATLESVVQERFGSRCARIFRLVLQKKHIEQKQVEDFAMIPAKEAKDMLYKMLSENFMSLQEIPKTPDHAPSRTFYLYTVNILSAARMLLHRCYKSIANLIERRQFETKENKRLLEKSQRVEAIIASMQATGAEEAQLQEIEEMITAPERQQLETLKRNVNKLDASEIQVDETIFLLESYIECTMKRQ
Consider B2, for which the “Z score of condensed fraction” value was 2.0488.

B3: POU5F2 (protein, UniProt Q8N7G0 1-328, looked up)
POU domain, class 5, …: MAGHRPSNHFCPLPGSGGGGPRGPMPLRVDTLTWLSTQAAPGRVMVWPAVRPGICPGPDVWRIPLGPLPHEFRGWIAPCRPRLGASEAGDWLRRPSEGALPGPYIALRSIPKLPPPEDISGILKELQQLAKELRQKRLSLGYSQADVGIAVGALFGKVLSQTTICRFEAQQLSVANMWKLRPLLKKWLKEVEAENLLGLCKMEMILQQSGKWRRASRERRIGNSLEKFFQRCPKPTPQQISHIAGCLQLQKDVVRVWFYNRSKMGSRPTNDASPREIVGTAGPPCPGAPVCFHLGLGLPVDIPHYTRLYSAGVAHSSAPATTLGLLRF
Consider B3, for which the “Z score of condensed fraction” value is recorded as 1.226.

B4: PIAS4 (protein, UniProt Q9JM05 2-507, looked up)
E3 SUMO-protein ligase PIAS4: AAELVEAKNMVMSFRVSDLQMLLGFVGRSKSGLKHELVTRALQLVQFDCSPELFKKIKELYETRYAKKSAEPGPQAPRPLDPLALHSMPRTPLSGPTVDYPVLYGKYLNGLGRLPTKTLKPEVRLVKLPFFNMLDELLKPTELVPQSAEKLQESPCIFALTPRQVEMIRNSRELQPGVKAVQVVLRICYSDTSCPQEDQYPPNIAVKVNHSYCSVPGYYPSNKPGVEPKRPCRPINLTHLMYLSSATNRITVTWGNYGKSYSVALYLVRQLTSSDLLQRLKTIGVKHPELCKALVKEKLRLDPDSEIATTGVRVSLICPLVKMRLSVPCRAETCAHLQCFDAVFYLQMNEKKPTWMCPVCDKPAAYDQLIIDGLLSKILSECEGADEIEFLAEGSWRPIRAEKEPSCSPQGPILVLGTSDANGLAPASSTPGIGSGLSGPGSAGSGAGAAGSLENGKTGADVVDLTLDSSSSSEDEDEDEDDDEDEDEGPRPKRRCPFQKGLVPAC
For the molecule B4, the “Z score of condensed fraction” value is -0.6594.

B5: POU2F2 (protein, UniProt P09086 1-479, looked up)
POU domain, class 2, …: MVHSSMGAPEIRMSKPLEAEKQGLDSPSEHTDTERNGPDTNHQNPQNKTSPFSVSPTGPSTKIKAEDPSGDSAPAAPLPPQPAQPHLPQAQLMLTGSQLAGDIQQLLQLQQLVLVPGHHLQPPAQFLLPQAQQSQPGLLPTPNLFQLPQQTQGALLTSQPRAGLPTQAVTRPTLPDPHLSHPQPPKCLEPPSHPEEPSDLEELEQFARTFKQRRIKLGFTQGDVGLAMGKLYGNDFSQTTISRFEALNLSFKNMCKLKPLLEKWLNDAETMSVDSSLPSPNQLSSPSLGFDGLPGRRRKKRTSIETNVRFALEKSFLANQKPTSEEILLIAEQLHMEKEVIRVWFCNRRQKEKRINPCSAAPMLPSPGKPASYSPHMVTPQGGAGTLPLSQASSSLSTTVTTLSSAVGTLHPSRTAGGGGGGGGAAPPLNSIPSVTPPPPATTNSTNPSPQGSHSAIGLSGLNPSTGPGLWWNPAPYQP
For B5, the “Z score of condensed fraction” value is -0.2237.

B6: POU4F1 (protein, UniProt Q01851 1-419, looked up)
POU domain, class 4, …: MMSMNSKQPHFAMHPTLPEHKYPSLHSSSEAIRRACLPTPPLQSNLFASLDETLLARAEALAAVDIAVSQGKSHPFKPDATYHTMNSVPCTSTSTVPLAHHHHHHHHHQALEPGDLLDHISSPSLALMAGAGGAGAAAGGGGAHDGPGGGGGPGGGGGPGGGPGGGGGGGPGGGGGGPGGGLLGGSAHPHPHMHSLGHLSHPAAAAAMNMPSGLPHPGLVAAAAHHGAAAAAAAAAAGQVAAASAAAAVVGAAGLASICDSDTDPRELEAFAERFKQRRIKLGVTQADVGSALANLKIPGVGSLSQSTICRFESLTLSHNNMIALKPILQAWLEEAEGAQREKMNKPELFNGGEKKRKRTSIAAPEKRSLEAYFAVQPRPSSEKIAAIAEKLDLKKNVVRVWFCNQRQKQKRMKFSATY
Take B6: the “Z score of condensed fraction” value is -0.7489.

B7: PPARD (protein, UniProt Q03181 1-441, looked up)
Peroxisome …: MEQPQEEAPEVREEEEKEEVAEAEGAPELNGGPQHALPSSSYTDLSRSSSPPSLLDQLQMGCDGASCGSLNMECRVCGDKASGFHYGVHACEGCKGFFRRTIRMKLEYEKCERSCKIQKKNRNKCQYCRFQKCLALGMSHNAIRFGRMPEAEKRKLVAGLTANEGSQYNPQVADLKAFSKHIYNAYLKNFNMTKKKARSILTGKASHTAPFVIHDIETLWQAEKGLVWKQLVNGLPPYKEISVHVFYRCQCTTVETVRELTEFAKSIPSFSSLFLNDQVTLLKYGVHEAIFAMLASIVNKDGLLVANGSGFVTREFLRSLRKPFSDIIEPKFEFAVKFNALELDDSDLALFIAAIILCGDRPGLMNVPRVEAIQDTILRALEFHLQANHPDAQYLFPKLLQKMADLRQLVTEHAQMMQRIKKTETETSLHPLLQEIYKDMY
For B7, the “Z score of condensed fraction” value is reported as -0.9649.

B8: POU3F4 (protein, UniProt P49335 1-361, looked up)
POU domain, class 3, …: MATAASNPYSILSSTSLVHADSAGMQQGSPFRNPQKLLQSDYLQGVPSNGHPLGHHWVTSLSDGGPWSSTLATSPLDQQDVKPGREDLQLGAIIHHRSPHVAHHSPHTNHPNAWGASPAPNPSITSSGQPLNVYSQPGFTVSGMLEHGGLTPPPAAASAQSLHPVLREPPDHGELGSHHCQDHSDEETPTSDELEQFAKQFKQRRIKLGFTQADVGLALGTLYGNVFSQTTICRFEGLQLSFKNMCKLKPLLNKWLEEADSSTGSPTSIDKIAAQGRKRKKRTSIEVSVKGVLETHFLKCPKPAAQEISSLADSLQLEKEVVRVWFCNRRQKEKRMTPPGDQQPHEVYSHTVKTDTSCHDL
Turning to B8, the “Z score of condensed fraction” value is reported as -0.484.

B9: POU3F1 (protein, UniProt Q03052 1-451, looked up)
POU domain, class 3, …: MATTAQYLPRGPGGGAGGTGPLMHPDAAAAAAAAAAAERLHAGAAYREVQKLMHHEWLGAGAGHPVGLAHPQWLPTGGGGGGDWAGGPHLEHGKAGGGGTGRADDGGGGGGFHARLVHQGAAHAGAAWAQGSTAHHLGPAMSPSPGASGGHQPQPLGLYAQAAYPGGGGGGLAGMLAAGGGGAGPGLHHALHEDGHEAQLEPSPPPHLGAHGHAHGHAHAGGLHAAAAHLHPGAGGGGSSVGEHSDEDAPSSDDLEQFAKQFKQRRIKLGFTQADVGLALGTLYGNVFSQTTICRFEALQLSFKNMCKLKPLLNKWLEETDSSSGSPTNLDKIAAQGRKRKKRTSIEVGVKGALESHFLKCPKPSAHEITGLADSLQLEKEVVRVWFCNRRQKEKRMTPAAGAGHPPMDDVYAPGELGPGGGGASPPSAPPPPPPAALHHHHHHTLPGSVQ
On to B9, for which the “Z score of condensed fraction” value is on record as -0.6601.

B10: POU3F2 (protein, UniProt P20265 1-443, looked up)
POU domain, class 3, …: MATAASNHYSLLTSSASIVHAEPPGGMQQGAGGYREAQSLVQGDYGALQSNGHPLSHAHQWITALSHGGGGGGGGGGGGGGGGGGGGGDGSPWSTSPLGQPDIKPSVVVQQGGRGDELHGPGALQQQHQQQQQQQQQQQQQQQQQQQQQRPPHLVHHAANHHPGPGAWRSAAAAAHLPPSMGASNGGLLYSQPSFTVNGMLGAGGQPAGLHHHGLRDAHDEPHHADHHPHPHSHPHQQPPPPPPPQGPPGHPGAHHDPHSDEDTPTSDDLEQFAKQFKQRRIKLGFTQADVGLALGTLYGNVFSQTTICRFEALQLSFKNMCKLKPLLNKWLEEADSSSGSPTSIDKIAAQGRKRKKRTSIEVSVKGALESHFLKCPKPSAQEITSLADSLQLEKEVVRVWFCNRRQKEKRMTPPGGTLPGAEDVYGGSRDTPPHHGVQTPVQ
Regarding B10, the “Z score of condensed fraction” value is -0.6292.

B11: POU2AF1 (protein, UniProt Q16633 1-256, looked up)
POU domain class …: MLWQKPTAPEQAPAPARPYQGVRVKEPVKELLRRKRGHASSGAAPAPTAVVLPHQPLATYTTVGPSCLDMEGSVSAVTEEAALCAGWLSQPTPATLQPLAPWTPYTEYVPHEAVSCPYSADMYVQPVCPSYTVVGPSSVLTYASPPLITNVTTRSSATPAVGPPLEGPEHQAPLTYFPWPQPLSTLPTSTLQYQPPAPALPGPQFVQLPISIPEPVLQDMEDPRRAASSLTIDKLLLEEEDSDAYALNHTLSVEGF
Take B11: the “Z score of condensed fraction” value is reported as 2.502.

B12: POU3F3 (protein, UniProt P20264 1-500, looked up)
POU domain, class 3, …: MATAASNPYLPGNSLLAAGSIVHSDAAGAGGGGGGGGGGGGGGAGGGGGGMQPGSAAVTSGAYRGDPSSVKMVQSDFMQGAMAASNGGHMLSHAHQWVTALPHAAAAAAAAAAAAVEASSPWSGSAVGMAGSPQQPPQPPPPPPQGPDVKGGAGRDDLHAGTALHHRGPPHLGPPPPPPHQGHPGGWGAAAAAAAAAAAAAAAAHLPSMAGGQQPPPQSLLYSQPGGFTVNGMLSAPPGPGGGGGGAGGGAQSLVHPGLVRGDTPELAEHHHHHHHHAHPHPPHPHHAQGPPHHGGGGGGAGPGLNSHDPHSDEDTPTSDDLEQFAKQFKQRRIKLGFTQADVGLALGTLYGNVFSQTTICRFEALQLSFKNMCKLKPLLNKWLEEADSSTGSPTSIDKIAAQGRKRKKRTSIEVSVKGALESHFLKCPKPSAQEITNLADSLQLEKEVVRVWFCNRRQKEKRMTPPGIQQQTPDDVYSQVGTVSADTPPPHHGLQTSVQ
Consider B12, for which the “Z score of condensed fraction” value came out at 1.399.
